From the supplement of paper PMC10126150
± gives the standard deviation of the averaged measurements.

Test system: ATP
Experiment: switch fluorescence ratio, 500 uM ATP over buffer (Cy3 cluster intensity, sum of 5 cycles each) (fold (ratio)); higher = stronger signal-on switching upon ATP binding; sequences stand for … in TCGTCGGCAGCGTCAGATGTGTATAAGAGACAGTTTTTTTTTTTTTTTTTTTTTTTTT…TC
Details: aptamer strand: ATP DNA aptamer (quencher-CACCTGGGGGAGTATTGCGGAGGAAGG + anchor), 100 nM annealed; ATP concentration: 500 uM
Method in brief: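 Switching-strand clusters labelled with Cy3 on a modified Illumina MiSeq flow-cell were annealed to 100 nM quencher-labelled ATP aptamer, imaged in selection buffer, and re-imaged after 15 min with 500 uM ATP at 22 °C. This was done over five cycles with NaOH stripping and re-annealing in between. The fluorescence ratio is summed target-cycle over summed buffer-cycle Cy3 intensity per cluster, averaged per switch-domain sequence, excluding clusters outside 100-1000 RFU.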
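Also: ATP exposure 15 min at 22 °C before imaging.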

Sequence	switch fluorescence ratio
AAAAAAAGCT	1.06 ± 0.075
AAAAAAAGGG	1.01 ± 0.047
AAAAAAATGC	0.974 ± 0.037
AAAAAACGCC	1.02 ± 0.027
AAAAAAGGGT	1.02 ± 0.021
AAAAAAGGTT	1.07 ± 0.14
AAAAAATATT	1.029 ± 0.0043
AAAAAATGCC	1.07 ± 0.091
AAAAACAGCG	1.02 ± 0.053
AAAAACTCTG	1.01 ± 0.079
AAAAATAGGG	1.03 ± 0.04
AAAAATGTTA	1.01 ± 0.018
AAAAATTCAG	0.987 ± 0.045
AAAACATGGA	0.9537 ± 0.0037
AAAACGTTAC	1.68 ± 0.02
AAAACGTTTG	1.025 ± 0.0023
AAAACTGAGC	1.08 ± 0.031
AAAACTGCGA	1.03 ± 0.067
AAAACTTTAC	1.2918 ± 0.00043
AAAAGAAAGC	0.956 ± 0.03
AAAAGAACGA	1.05 ± 0.074
AAAAGAATGG	0.971 ± 0.043
AAAAGACGG	1 ± 0.062
AAAAGCACGA	1.09 ± 0.2
AAAAGCCGGG	0.979 ± 0.16

Sequence	switch fluorescence ratio
AAAAGCGGTA	1 ± 0.054
AAAAGGGAGC	1.14 ± 0.14
AAAAGGGGGC	1.01 ± 0.05
AAAAGGGGGG	1.02 ± 0.044
AAAAGGGTTA	0.9976 ± 0.004
AAAAGGTAAA	1.02 ± 0.021
AAAAGGTGCG	0.993 ± 0.013
AAAAGGTTAA	0.968 ± 0.019
AAAAGTAGAA	0.992 ± 0.023
AAAAGTATAC	1.06 ± 0.072
AAAAGTCCGC	1.45 ± 0.062
AAAAGTGGCA	1.07 ± 0.065
AAAAGTGGGC	1.07 ± 0.081
AAAAGTGTTA	0.977 ± 0.027
AAAAGTGTTG	0.948 ± 0.03
AAAAGTTGCG	0.9679 ± 0.0076
AAAAGTTTGG	1 ± 0.015
AAAATAGAAC	1.01 ± 0.041
AAAATATTCG	1.01 ± 0.011
AAAATCGCTT	1.01 ± 0.065
AAAATCGGCG	1.05 ± 0.073
AAAATCGGGT	1.03 ± 0.025
AAAATCTAAA	1.014 ± 0.0068
AAAATGAGTG	0.985 ± 0.021
AAAATGATTT	1.02 ± 0.043

Sequence	switch fluorescence ratio
AAAATGCAG	0.9856 ± 0.0015
AAAATGCGCT	0.975 ± 0.013
AAAATGCGTG	0.966 ± 0.059
AAAATGCTTT	1.01 ± 0.0014
AAAATGGAAA	1.028 ± 0.0035
AAAATGGATG	0.983 ± 0.031
AAAATGGCAG	1.004 ± 0.0089
AAAATGGGTG	0.976 ± 0.015
AAAATGGGTT	1 ± 0.059
AAAATTATAT	1.02 ± 0.035
AAAATTATTT	1.01 ± 0.021
AAAATTGAAA	0.988 ± 0.073
AAAATTGCGT	1.16 ± 0.2
AAAATTGGAA	1 ± 0.03
AAAATTGTCT	0.981 ± 0.023
AAAATTTGTG	0.995 ± 0.017
AAAATTTTTA	1 ± 0.021
AAACACAAGA	1.13 ± 0.18
AAACAGGGAT	1 ± 0.032
AAACAGTTGG	0.9936 ± 0.0097
AAACATAAGC	0.991 ± 0.038
AAACATTTCA	0.976 ± 0.063
AAACCAGTG	1.175 ± 0.0088
AAACCGGGGG	1.1 ± 0.085
AAACCTCTGG	0.965 ± 0.02

Sequence	switch fluorescence ratio
AAACGAGGAG	1 ± 0.013
AAACGAGGGT	1.02 ± 0.03
AAACGATGTG	0.985 ± 0.023
AAACGCAAAG	1.27 ± 0.3
AAACGGGGCT	1.02 ± 0.012
AAACTGTAAT	1.08 ± 0.017
AAACTTGTAC	1.1 ± 0.036
AAACTTTGTT	1.02 ± 0.039
AAAGAAAGC	1.02 ± 0.08
AAAGAAAGCG	0.997 ± 0.042
AAAGAAATTG	1.01 ± 0.035
AAAGAACGGG	1.04 ± 0.023
AAAGAAGCAT	1.001 ± 0.0059
AAAGAAGGGA	0.981 ± 0.015
AAAGAAGGGC	0.938 ± 0.05
AAAGACAGGG	0.976 ± 0.036
AAAGACGGTT	0.997 ± 0.013
AAAGAGAAGT	1.02 ± 0.019
AAAGAGAGTA	1.01 ± 0.038
AAAGAGCGCC	0.947 ± 0.03
AAAGAGGAGA	1.02 ± 0.023
AAAGAGGGG	0.98 ± 0.029
AAAGAGGGGG	1.03 ± 0.049
AAAGAGTCCT	1.01 ± 0.029
AAAGAGTTGA	1 ± 0.022

Sequence	switch fluorescence ratio
AAAGAGTTGC	0.9785 ± 0.0069
AAAGAGTTTT	1.02 ± 0.071
AAAGATAATT	0.982 ± 0.018
AAAGATATAA	1.03 ± 0.036
AAAGATGATG	1.0025 ± 0.00068
AAAGATGCGG	1.01 ± 0.066
AAAGATGGCT	0.98 ± 0.025
AAAGATTAAA	0.9918 ± 0.0056
AAAGATTCGA	0.996 ± 0.01
AAAGATTTGT	0.978 ± 0.016
AAAGCAATGG	2.51 ± 2
AAAGCAATTG	1.077 ± 0.0065
AAAGCAGGGA	1.04 ± 0.043
AAAGCATAAC	1.91 ± 0.14
AAAGCGGGGG	1.04 ± 0.016
AAAGCGTGGA	1 ± 0.011
AAAGCGTGTG	1.01 ± 0.043
AAAGCTATTC	1.12 ± 0.16
AAAGCTCACC	1.12 ± 0.026
AAAGGAAGGT	1.01 ± 0.024
AAAGGAGGAA	0.989 ± 0.019
AAAGGAGGGC	0.968 ± 0.067
AAAGGAGTTT	1.01 ± 0.072
AAAGGATGAG	0.979 ± 0.019
AAAGGATGAT	0.9978 ± 0.0031

Sequence	switch fluorescence ratio
AAAGGCATGT	1.04 ± 0.017
AAAGGCGTAT	1.008 ± 0.0036
AAAGGCGTCA	1.01 ± 0.016
AAAGGCGTTA	0.9971 ± 0.0062
AAAGGGAAAT	0.975 ± 0.037
AAAGGGAACC	1.017 ± 0.0037
AAAGGGATAT	0.975 ± 0.049
AAAGGGCCTT	1.003 ± 0.0024
AAAGGGCGAC	0.973 ± 0.014
AAAGGGGATG	1.01 ± 0.016
AAAGGGGGAT	1 ± 0.023
AAAGGGGTAA	0.982 ± 0.02
AAAGGGGTAC	1.04 ± 0.016
AAAGGGGTGC	1.05 ± 0.048
AAAGGGTAAT	0.984 ± 0.018
AAAGGGTAGT	0.9813 ± 0.0014
AAAGGTAATC	1.01 ± 0.023
AAAGGTATTC	1 ± 0.02
AAAGGTGATA	1.03 ± 0.037
AAAGGTGGCA	1 ± 0.017
AAAGGTGGGG	1.001 ± 0.01
AAAGGTGTGT	1.04 ± 0.073
AAAGGTTAAA	0.99 ± 0.018
AAAGGTTGCT	1.007 ± 0.01
AAAGGTTGGG	0.992 ± 0.044

Sequence	switch fluorescence ratio
AAAGGTTTTT	0.988 ± 0.016
AAAGTAAGCC	0.984 ± 0.018
AAAGTACCCG	1.07 ± 0.04
AAAGTAGGTT	0.991 ± 0.023
AAAGTATATA	1.02 ± 0.04
AAAGTCTATT	0.99 ± 0.02
AAAGTGCCCG	0.979 ± 0.022
AAAGTGGCCC	0.997 ± 0.018
AAAGTGGGCC	0.9593 ± 0.0049
AAAGTGGTCG	1.1 ± 0.039
AAAGTGGTCT	1 ± 0.015
AAAGTGTAAA	1.08 ± 0.058
AAAGTGTCGT	0.973 ± 0.028
AAAGTGTGCG	1.01 ± 0.023
AAAGTTAGTT	1.03 ± 0.019
AAAGTTATAT	1.022 ± 0.0028
AAAGTTTGTT	1.025 ± 0.007
AAAGTTTTAA	1.02 ± 0.018
AAATAAACA	0.999 ± 0.023
AAATAACGGT	1.16 ± 0.21
AAATAACTAC	1.08 ± 0.015
AAATAATTGG	1.09 ± 0.013
AAATAATTTA	0.955 ± 0.038
AAATACCGCA	1.48 ± 0.17
AAATACGCTC	1.25 ± 0.2

Sequence	switch fluorescence ratio
AAATACTTGC	1.14 ± 0.074
AAATAGACCG	1 ± 0.0091
AAATAGGTGG	0.996 ± 0.024
AAATAGTCTG	0.972 ± 0.017
AAATAGTGTG	1 ± 0.033
AAATATAGTG	0.991 ± 0.025
AAATATATAT	0.994 ± 0.044
AAATATATTC	1.02 ± 0.012
AAATATGGGC	0.961 ± 0.022
AAATATTATA	1.02 ± 0.031
AAATATTGAG	1 ± 0.015
AAATATTGGT	1.01 ± 0.03
AAATATTTCC	1.09 ± 0.06
AAATCAAACG	1.05 ± 0.018
AAATCAACCC	0.9885 ± 0.0083
AAATCAGGTT	0.972 ± 0.016
AAATCATTAT	1.01 ± 0.019
AAATCATTGG	1.01 ± 0.026
AAATCCAATA	1.0106 ± 0.0007
AAATCCCGCT	1.0834 ± 0.00016
AAATCCCGTA	1.01 ± 0.052
AAATCCGCTT	1.27 ± 0.26
AAATCGCGGA	1.05 ± 0.011
AAATCTTAAT	1.002 ± 0.007
AAATGAAAGT	0.995 ± 0.015
